Results reported in a protein production outcome set (Wang et al. 2014).

assay: label from the status in PepcDB records

Sequence | protein production
MANAKPVCSLFHSTFHDGIASVFHRSFSFPLLLILLIAFSGSGYANSSKETRAAARSESAGKTVSSRWAKGRLLVIPRAGLTAMEFDKATKPYGVKSRRRLNGLNAHVYELPDGVDEVKVLDKLKKDRRFKAVELDRLVEPAQVVTDPAFGNSWALPKIQAPAAWDIATGDGITIAILDTGVDGTHPDLAANMLPGWNAYDNNTDTSDIYGHGTKVAGTAAAVANNGAGSSGLAWNARILPVRISMPDGRAYLSDMAKGIRWAADNGARIANISYGGAESLTVQSAANYMRSKGGVVVMSAGNSGGLNNFPASNAIIVASATDSKDARASWSSYGPYVDVAAPGVSIYTTIRGGGYGYVSGTSFSSPIVAAAAALLFSINPDLAPTDIDQMLTATAQDLGNAGYDQYYGHGRINAASAVNAAHARISVDRTAPLISIASPTGGTVSGSVPVDVNYSDNKGVVRVDLYVNGRKTIEDTQPPFAFAWDTTTLANGSYTLVAYAFDAAGNQGTSSTVNVTVKNTVADTTPPTISITSPAGGAVVLGSVPVNVNSSDNIGVVRTELHVNGKKVMEGTGSSFVWDTKSLADGNYTLVAYAFDAAGNQGASSPVAVSVKNTGTTTNTEPLPQINSFNLRDGQNVSRNQNIRVTADRNTRKINLKINGGIIAAANGNSLSYRWNTSAIPKNSNITVTAEAFNAKGDATSRTVTVRN | failed
MANEDCPKAADSPFSSDKHAQLILAQINKMRNGQHFCDVQLQVGQESFKAHRLVLAASSPYFAALFTGGMKESSKDVVPILGIEAGIFQILLDFIYTGIVNIGVNNVQELIIAADMLQLTEVVHLCCEFLKGQIDPLNCIGIFQFSEQIACHDLLEFSENYIHVHFLEVHSGEEFLALTKDQLIKILRSEELSIEDEYQVFLAAMQWILKDLGKRRKHVVEVLDPIRFPLLPPQRLLKYIEGVSDFNLRVALQTLLKEYCEVCKSPKENKFCSFLQTSKVRPRKKARKYLYAVGGYTRLQGGRWSDSRALSCVERFDTFSQYWTTVSSLHQARSGLGVTVLGGMVYAIGGEKDSMIFDCTECYDPVTKQWTTVASMNHPRCGLGVCVCYGAIYALGGWVGAEIGNTIERFDPDENKWEVVGNMAVSRYYFGCCEMQGLIYVIGGISNEGIELRSFEVYDPLSKRWSPLPPMGTRRAYLGVAALNDCIYSVGGWNETQDALHTVEKYSFEEEKWVEVASMKVPRAGMCVVAVNGLLYVSGGRSSSHDFLAPGTLDSVEVYNPHSDTWTEIGNMITSRCEGGVAVL | failed
MANGRIEKIGQQLTTPSGYQVLDATGKHVTAGIVDEHSHIAINGGTNEGTDAVTAEVRIGDVINPEDVSIYRALAGGVTSAQLLHGSANPIGGQSQLIKMKWGESAEQLKFANAPASIKFALGENVKQSNWGEKFVQRFPQTRMGVKALFEETFDAALAYENALKDYDDLRSSEKKKTLAPRPSYRLQAVAEVLKQQRDVHIHSYVQSEILMFLRLAEAYRFKVQTFTHVLEGYKVASELAAHGAGASTFADWWAYKFEVYDAIPQNACLMQKQGVLTSINSDDYEMQRRLNQEAAKSMMYCGMSKEDAWNMVTIYPAKQLRVDEYVGSLTPGKMADIVLWNAEPLSIYAKVTHAWVEGKRYFDREQDQLAQQQVVTERAALIQKILSSDDNAKAGEKVTPLNEPQWHCDTHYQAWGQHHQGAK | failed
MANITFSSPVMAKDVTVYAVAGDRGTILAVAKSHSIPIPFDCQDGECGSCLVQVEHFNPKAKAAVALTEKEKEVLRQLGKITKEEIVDAEVNDIPPRYRLACQCFVRNEDILVKFEGDKTKPQRLAVTPAAAHYKGGMEINTPQEFFSYAAKVEEDAALHYDSLAKAMADAGNAPVAKLFAQLAEFSRLHLAEVKSRAGSIDLSKSVPPDYAWPDHATPERAAVWASDTTLTRLGALKAALQGERRGYEFYRAVEATTKSSEVAAAAKEFVNEEAEHVRILEAWITQEEWSLKHAAKAAENA | failed
MANKKIDHREEAIELLKQDAKRILQLIKVQMDNLTLPQCPAYEEVLDTQMYGLSREINFATRLGLIEPEEGKKLISTLEKELSALHELSMSKK | not failed
MANKKNKVKFNICNVHYAPITVADEGKVSFGTPVAMPGAVSISMDPTGEPESFYADGIEYYVINNNQGYDGDLELAMIPETFRTDILKEEADSNNVLVENANSETGSFALLFEFDGDIRKIRHVLYNCSASRPTIESKTNEEDKEVQTETLTIKARPMADGYVKAKTGDSTTDTVYNNWYKSVYLPNSLEHHHHHH | failed
MANLAASTCLYSWLLVLLLSSVSAIIDEDTQVYIVYMGSLSSRADYIPTSDHMSILQQVTGESSIEGRLVRSYKRSFNGFAARLTESERTLIAEIEGVVSVFPNKILQLHTTTSWDFMGVKEGKNTKRNLAIESDTIIGVIDTGIWPESKSFSDKGFGPPPKKWKGVCSGGKNFTCNNKLIGARDYTSEGTRDTSGHGTHTASTAAGNAVKDTSFFGIGNGTVRGGVPASRIAAYKVCTDSGCSSEALLSSFDDAIADGVDLITISIGFQFPSIFEDDPIAIGAFHAMAKGILTVSSAGNSGPKPTTVSHVAPWIFTVAASTTNRGFITKVVLGNGKTLAGRSVNAFDMKGKKYPLVYGKSAASSACDAKTAALCAPACLNKSRVKGKILVCGGPSGYKIAKSVGAIAIIDKSPRPDVAFTHHLPASGLKAKDFKSLVSYIESQDSPQAAVLKTETIFNRTSPVIASFSSRGPNTIAVDILKPDITAPGVEILAAFSPNGEPSEDDTRRVKYSVFSGTSMACPHVAGVAAYVKTFYPRWSPSMIQSAIMTTAWPVKAKGRGIASTEFAYGAGHVDPMAALNPGLVYELDKADHIAFLCGMNYTSKTLKIISGDTVKCSKKNKILPRNLNYPSMSAKLSGTDSTFSVTFNRTLTNVGTPNSTYKSKVVAGHGSKLSIKVTPSVLYFKTVNEKQSFSVTVTGSDVDSEVPSSANLIWSDGTHNVRSPIVVYIMVVDEA | failed
MANLPTVLVTGASGRTGQIVYKKLKEGSDKFVAKGLVRSAQGKEKIGGEADVFIGDITDADSINPAFQGIDALVILTSAVPKMKPGFDPTKGGRPEFIFEDGQYPEQVDWIGQKNQIDAAKVAGVKHIVVVGSMGGTNPDHPLNKLGNGNILVWKRKAEQYLADSGTPYTIIRAGGLLDKEGGVRELLVGKDDELLQTDTKTVPRADVAEVCIQALLFEEAKNKAFDLGSKPEGTSTPTKDFKALFSQVTSRF | not failed
MANNELQIAGSQGELRIRPYEHHAKYYETDQMGIIHHSNYVKWMEEARLDLMDQIGLNYRQMEDMEIISPVLSISVEYHSMVHFDDTVVIYTKLLKYNGIKMELEYVMKDKETGELRTTAKSSHCFLNKSGKPISLKRMYPELDTKFFEFKEA | failed
MANPPSQEADHLVEAFRYTVAKLFLQQAQKDHLKADKEAIFVLSELLLGYIEILTADLEAFCRHGKRTTITADDVLLCCRRNENLVSRHMLINRAAAEISSFP | failed
MANRQRGVALIIVLMLLAIMATIAATMSERLFLQFQRGSNQIHYQQAYWYSVGVEALAEVGIEQSYKDSDTINLSQPWAIKEQVYPLDYGQAAGRIWDKQACFNLNVLSRVQPTGQQTTRPYLVQVLQRLLEESDVEPYQAEVIADSTWEYIDSDSTVRSTTGVEDSTYESMKPSYLAANGWMADKTELRAVYQVSGEIYQKIEPLVCAIPSDDWRLNVNTIEVEQAPILVAMFSPNLSSSDAVQLIEKRPFDGWDSVDEFLAESELTGLSDDVKKNAKGYLGVDSSFFELDAQVLVDDSRVRIRSLLQSTNRETVTVVRRRFGGISERVSDRSAE | failed
MANVFLISSRNRRSMRTTTESKPKNLTVKRSDSSSDYNYSCKKHPKHRQSPGICSLCLNESLSKLSSEFYDYSSSMSSSSLAKTMSSCSSASSESESDFSSTAISSYYSSVSSCLSPLQHRYSEIVVNKKKKKHVKKQSFLSRLFLKQRIQTKAVIGWHMTLQLAIQLMYGKRKKTCHASFIQVWY | failed
MAPAPAAEFWEARYRDTGRVWSGRPNELLVQEAGGLAPGTALDLGCGEGADAVWLASRGWRVTGVDISATALERAAGHADGAGVGDRVLWERHELGPSFPEGSFDLVSAHYLQSPVALDQQAVLRAAARAVAPGGTLLVVMHAGWPSWQTEPPFDAAFPTLDGVLAELALPEGEWSVETRRTARRPLEHHHHHH | failed
MAPAPAAEFWEARYRDTGRVWSGRPNELLVQEAGGLAPGTALDLGCGEGADAVWLASRGWRVTGVDISATALERAAGHADGAGVGDRVLWERHELGPSFPEGSFDLVSAHYLQSPVALDQQAVLRAAARAVAPGGTLLVVMHAGWPSWQTEPPFDAAFPTLDGVLAELALPEGEWSVETRRTARRPSVAPDGTEGFREDHVWRLKRAVLEHHHHHH | not failed
MAPIFRNYRFAIGAFAVIMLILLIKTSSIGPPSIARTVTPNASIPKTPEDISILPVNDEPGYLQDSKTEQNYPELADAVKSQTSQTCSEEHKYVIMIDAGSTGSRVHIYKFDVCTSPPTLLDEKFDMLEPGLSSFDTDSVGAANSLDPLLKVAMNYVPIKARSCTPVAVKATAGLRLLGDAKSSKILSAVRDHLEKDYPFPVVEGDGVSIMGGDEEGVFAWITTNYLLGNIGANGPKLPTAAVFDLGGGSTQIVFEPTFPINEKMVDGEHKFDLKFGDENYTLYQFSHLGYGLKEGRNKVNSVLVENALKDGKILKGDNTKTHQLSSPCLPPKVNATNEKVTLESKETYTIDFIGPDEPSGAQCRFLTDEILNKDAQCQSPPCSFNGVHQPSLVRTFKESNDIYIFSYFYDRTRPLGMPLSFTLNELNDLARIVCKGEETWNSVFSGIAGSLDELESDSHFCLDLSFQVSLLHTGYDIPLQRELRTGKKIANKEIGWCLGASLPLLKADNWKCKIQSA | failed
MAPKDQAADMDYDQTKKMVVDILKTDDGKKAIKELLNDDAMNEALVIDQDAIKGTIEKTLTSKKGEEFWKNIFEDTDFAEGFAKTLQTEHEKVIKKLMKDPDYQKMLMSVMQDPGMDKKYSQLAKSQEFRSYLEEVINETLSSPLYKKQFEDELKKAAKDTAKESELEHHHHHH | not failed
MAPLLMILAAQLLIASGNLLVKLLETNTPVFQLVLYRQLFATLLVLPFVWHLQGNLKLSPFYKVHLSRALLIGLGNAIFMLAVLHLPLATVTAVIYSSPLILLLLSAFFLNERIGYRRSVAGLIGFTGILLISQPTEVNLYIGLAFFGAMISAINSLILKAYSTHEHPFSTLFWSNAFAMVFLIPATWYEGANFSLPVAQVGLTLGVFYVGMTYLIIHAYRRADASQMAPVEYTGLIFAALLGWWFLDETLSVVVCIGIGLVIFSSLLPSYGELKAKWKSRRR | failed
MAPLSFEVRSVSVLVLVLAVSAAFCLGIGFVLQQNAAQHAPLSDFLSPRLLLDLMHVRRWLGGIGFMVVGMVLGAVALAHGELSLVEPLLATNLLFALGLSRRQTKQPLGRQGWAGLALLAGGVTAFIVAGQPTGGDAVTNPLRHWVIIGVMVGFALLLTTYAKQSRLSAAPVLLSLAAGLLYGVQDALTRVSGQRFSEGGWPELVTGWQPYAVLALGVTGLVLVQSAFETAPLRMSLPALTAAQPLAGIVCGVGFLGDQLRTDTGALAWEAAGLAAVVLGIVLLGLHPAMPRGSAEAERQRDLQPH | failed
MAPNASCLCVHVRSEEWDLMTFDANPYDSVKKIKEHVRSKTKVPVQDQVLLLGSKILKPRRSLSSYGIDKEKTIHLTLKVVKPSDEELP | failed
MAPPTAAPEPNTVPETSPTGHRMFSRIRLATPTDVPFIHKLIHQMAVFERLTHLFVATESGLASTLFNSRPFQAVTVFLLEISPSPFPTTHDASSPDFTPFLETHKVDLPIEDPDREKFLPDKLNDVVVAGFVLFFPNYPSFLAKQGFYIEDIFMREPYRRKGFGKLLLTAVAKQAVKLGVGRVEWIVIDWNVNAINFYEQMGAQVFKEWRLCRLTGDALQAIDKLNI | failed
MAPQKPVSAAQTAQHSAVWIDVRSEQEFSEGHLHNAVNIPVDQIVRRIYEAAPDKDTPVNLYCRSGRRAEAALQELKKAGYTNVANHGGYEDLLKKGLEHHHHHH | not failed
